According to patent publication US20040191887A1 (WISCONSIN ALUMNI RESEARCH FOUNDATION, published 2004):

Tests used:
botulinum neurotoxin A = botulinum neurotoxin A (Clostridium botulinum, UniProt P0DPI0 2-1296); test: GST pull-down with and without gangliosides, immunoblot
botulinum neurotoxin E = target: T1, botulinum neurotoxin E (Clostridium botulinum, UniProt Q00496 2-1251); test: as above
T1 sequence: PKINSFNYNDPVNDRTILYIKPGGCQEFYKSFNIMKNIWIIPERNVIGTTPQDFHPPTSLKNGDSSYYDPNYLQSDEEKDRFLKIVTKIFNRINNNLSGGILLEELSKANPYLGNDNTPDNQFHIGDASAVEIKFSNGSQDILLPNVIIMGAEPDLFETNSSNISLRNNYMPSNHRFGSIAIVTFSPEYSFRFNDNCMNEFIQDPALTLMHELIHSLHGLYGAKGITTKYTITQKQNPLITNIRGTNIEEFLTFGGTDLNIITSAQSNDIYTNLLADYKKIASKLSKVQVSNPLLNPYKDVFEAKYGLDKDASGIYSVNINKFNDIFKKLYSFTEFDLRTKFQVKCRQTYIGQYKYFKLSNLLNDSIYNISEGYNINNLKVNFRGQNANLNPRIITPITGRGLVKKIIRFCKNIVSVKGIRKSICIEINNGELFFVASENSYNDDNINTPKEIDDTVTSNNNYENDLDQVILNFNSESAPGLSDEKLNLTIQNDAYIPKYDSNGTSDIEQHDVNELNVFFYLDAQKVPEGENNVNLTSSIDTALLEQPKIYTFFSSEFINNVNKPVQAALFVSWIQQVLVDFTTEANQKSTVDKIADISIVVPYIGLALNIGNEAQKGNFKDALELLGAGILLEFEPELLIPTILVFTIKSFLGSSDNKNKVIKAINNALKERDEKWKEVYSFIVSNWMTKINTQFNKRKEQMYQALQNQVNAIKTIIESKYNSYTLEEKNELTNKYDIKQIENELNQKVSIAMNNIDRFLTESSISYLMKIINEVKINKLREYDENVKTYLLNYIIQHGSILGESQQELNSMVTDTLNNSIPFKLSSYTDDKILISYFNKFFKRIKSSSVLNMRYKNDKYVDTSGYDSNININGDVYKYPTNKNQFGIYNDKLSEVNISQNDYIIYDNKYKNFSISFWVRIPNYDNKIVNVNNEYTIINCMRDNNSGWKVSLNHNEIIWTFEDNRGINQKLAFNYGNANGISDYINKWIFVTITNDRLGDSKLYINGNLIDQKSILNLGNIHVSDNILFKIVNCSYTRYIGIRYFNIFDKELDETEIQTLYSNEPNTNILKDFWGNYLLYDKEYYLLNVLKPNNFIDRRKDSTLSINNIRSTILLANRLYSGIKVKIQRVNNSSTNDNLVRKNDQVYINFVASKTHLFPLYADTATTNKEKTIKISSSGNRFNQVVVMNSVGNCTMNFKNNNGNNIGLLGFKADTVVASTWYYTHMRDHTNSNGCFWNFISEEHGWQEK

Sequence of botulinum neurotoxin A (P0DPI0 2-1296 limits assumed): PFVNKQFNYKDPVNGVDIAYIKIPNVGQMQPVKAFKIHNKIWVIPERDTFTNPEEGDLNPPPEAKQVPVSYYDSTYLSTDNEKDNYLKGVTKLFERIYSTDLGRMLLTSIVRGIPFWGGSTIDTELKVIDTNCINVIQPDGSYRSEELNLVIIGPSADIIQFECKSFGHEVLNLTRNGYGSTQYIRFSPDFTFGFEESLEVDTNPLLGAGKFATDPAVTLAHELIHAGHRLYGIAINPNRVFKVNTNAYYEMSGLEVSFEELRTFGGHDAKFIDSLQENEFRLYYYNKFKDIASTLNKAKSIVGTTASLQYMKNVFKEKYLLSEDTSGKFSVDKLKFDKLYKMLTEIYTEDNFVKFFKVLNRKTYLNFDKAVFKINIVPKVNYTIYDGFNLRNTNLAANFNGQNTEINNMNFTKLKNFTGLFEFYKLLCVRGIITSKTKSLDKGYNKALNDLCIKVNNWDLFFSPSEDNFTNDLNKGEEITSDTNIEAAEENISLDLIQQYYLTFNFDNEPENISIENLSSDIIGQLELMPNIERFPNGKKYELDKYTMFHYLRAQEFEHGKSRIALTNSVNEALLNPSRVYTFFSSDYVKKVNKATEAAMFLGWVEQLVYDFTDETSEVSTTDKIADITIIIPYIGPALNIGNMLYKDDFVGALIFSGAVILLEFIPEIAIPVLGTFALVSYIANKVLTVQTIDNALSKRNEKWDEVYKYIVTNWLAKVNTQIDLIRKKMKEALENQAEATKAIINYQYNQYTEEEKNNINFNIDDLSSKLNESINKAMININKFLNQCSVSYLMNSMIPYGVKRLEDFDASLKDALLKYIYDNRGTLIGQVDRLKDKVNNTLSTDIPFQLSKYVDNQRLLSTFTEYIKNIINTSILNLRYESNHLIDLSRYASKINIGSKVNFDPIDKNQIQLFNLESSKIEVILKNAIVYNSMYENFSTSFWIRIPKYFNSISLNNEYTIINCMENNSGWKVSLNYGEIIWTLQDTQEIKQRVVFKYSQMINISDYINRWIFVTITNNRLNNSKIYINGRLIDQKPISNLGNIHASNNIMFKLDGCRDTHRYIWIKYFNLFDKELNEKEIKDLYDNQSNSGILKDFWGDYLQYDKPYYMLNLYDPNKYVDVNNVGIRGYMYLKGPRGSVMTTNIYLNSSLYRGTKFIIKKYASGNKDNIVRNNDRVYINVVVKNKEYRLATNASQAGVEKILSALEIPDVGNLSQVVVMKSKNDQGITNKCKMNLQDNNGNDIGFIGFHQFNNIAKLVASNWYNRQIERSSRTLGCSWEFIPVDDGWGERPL

B1: GST fusion of rat synaptotagmin I lacking the C2B domain (receptor)
chain: MVSASHPEALAAPVTTVATLVPHNATEPASPGEGKEDAFSKLKQKFMNELHKIPLPPWALIAIAIVAVLLVVTCCFCVCKKCLFKKKNKKKGKEKGGKNAINMKDVKDLGKTMKDQALKDDDAETGLTDGEEKEEPKEEEKLGKLQYSLDYDFQNNQLLVGIIQAAELPALDMGGTSDPYVKVFLLPEKKKKFETKVHRKTLNPVFNEQFTFKVPYSELGGKTLVMAVYDFDRFSKHDIIGEFKVPMNTVDFGHVTEEWRDLQSA
Botulinum neurotoxin A
  binding result: no binding (tested: 30 nM; also 300 nM (data not shown))
Botulinum neurotoxin E
  binding result: no binding (tested: 30 nM; also 300 nM (data not shown))

B2: GST fusion of mouse synaptotagmin II lacking the C2B domain (residues 1-267) (receptor)
chain: MRNIFKRNQEPNVAPATTTATMPLAPVAPADNSTESTGPGESQEDMFAKLKEKFFNEINKIPLPPWALIAMAVVAGLLLLTCCFCICKKCCCKKKKNKKEKGKGMKNAMNMKDMKGGQDDDDAETGLTEGEGEGEEEKEPENLGKLQFSLDYDFQANQLTVGVLQAAELPALDMGGTSDPYVKVFLLPDKKKKYETKVHRKTLNPAFNETFTFKVPYQELAGKTLVMAIYDFDRFSKHDIIGEVKVPMNTVDLGQPIEEWRDLQGGE
Botulinum neurotoxin A
  binding result: no binding (tested: 30 nM; also 300 nM (data not shown))
Botulinum neurotoxin E
  binding result: no binding (tested: 30 nM; also 300 nM (data not shown))

B3: GST fusion of rat synaptotagmin IV lacking the C2B domain (receptor)
chain: MAPITTSRVEFDEIPTVVGIFSAFGLVFTVSLFAWICCQRRSAKSNKTPPYKFVHVLKGVDIYPENLSSKKKFGGDDKSEAKRKAALPNLSLHLDLEKRDLNGNFPKTNPKAGSSSDLENVTPKLFPETEKEAVSPESLKSSTSLTSEEKQEKLGTLFLSLEYNFEKKAFVVNIKEAQGLPAMDEQSMTSDPYIKMTILPEKKHKVKTRVLRKTLDPVFDETFTFYGVPYPHIQELSLHFTVLSFDRFSRDDVIGEVLVPLSGIELSDGKMLMTREIIKR
Botulinum neurotoxin A
  binding result: no binding (tested: 30 nM; also 300 nM (data not shown))
Botulinum neurotoxin E
  binding result: no binding (tested: 30 nM; also 300 nM (data not shown))
